T1: CD7 on cells (K562-CD7 positive cells; KG-1a-GFP-Luc; CCRF-CEM) (UniProt P09564 26-240, limits assumed)
T1 sequence (looked up): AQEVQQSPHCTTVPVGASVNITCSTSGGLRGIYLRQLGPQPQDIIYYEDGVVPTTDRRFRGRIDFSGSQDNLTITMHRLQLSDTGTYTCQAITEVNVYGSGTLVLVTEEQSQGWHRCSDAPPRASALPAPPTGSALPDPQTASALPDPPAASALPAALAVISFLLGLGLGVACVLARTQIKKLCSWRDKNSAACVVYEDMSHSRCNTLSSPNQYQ

T2: CD7-His protein (UniProt P09564 26-180, limits assumed)
T2 construct: extracellular domain; also called recombinant CD7-His protein; CD7 antigen; not shown: His tag
T2 sequence (looked up): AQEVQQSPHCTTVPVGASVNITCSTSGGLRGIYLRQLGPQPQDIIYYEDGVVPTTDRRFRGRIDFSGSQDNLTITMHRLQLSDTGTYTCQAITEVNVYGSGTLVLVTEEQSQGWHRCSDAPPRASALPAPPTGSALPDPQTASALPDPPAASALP

B1: VHH14 single VHH CAR (other)
chain: QVQLQESGGGLVQPGGSLRLSCTASGLTLGYYAIGWFRQAPGKEREFVSTISASGGMTYYADSVKGRFTISRDNAKNTVYLEMNSLKPEDTAVYYCAAEYLGNLRHFRGDHWGKGTQVTVSSTTPAPRPPTPAPTIASQPLSLRPEACRPAAGGAVHTRGLDFACDIYIWAPLAGTCGVLLLSLVITLYCKRGRKKLLYIFKQPFMRPVQTTQEEDGCSCRFPEEEEGGCELRVKFSRSADAPAYKQGQNQLYNELNLGRREEYDVLDKRRGRDPEMGGKPRRKNPQEGLYNELQKDKMAEAYSEIGMKGERRRGKGHDGLYQGLSTATKDTYDALHMQALPPR
B2: VHH19 single VHH CAR (other)
chain: QVQLQESGGGLVQPGGSLRLSCTASGRAFSMYVMGWFRQAPGKEREFVSTISASGGMTYYADSVKGRFTISRDNAKNTVYLEMNSLKPEDTAVYYCAAEYLGNLRHFRGDHWGKGTQVTVSSTTPAPRPPTPAPTIASQPLSLRPEACRPAAGGAVHTRGLDFACDIYIWAPLAGTCGVLLLSLVITLYCKRGRKKLLYIFKQPFMRPVQTTQEEDGCSCRFPEEEEGGCELRVKFSRSADAPAYKQGQNQLYNELNLGRREEYDVLDKRRGRDPEMGGKPRRKNPQEGLYNELQKDKMAEAYSEIGMKGERRRGKGHDGLYQGLSTATKDTYDALHMQALPPR
B3: VHH06 single VHH CAR (other)
chain: QVQLQESGGGLVQAGGSLRLSCAASGRTFSSYNMGWFRQAPGAEREFVAAISRGGGSTYYADSVKGRFTISRDNAKNTVYLQMNSLRPEDTAVYYCADSGARAYSGSYLDFGSWGQGTQVTVSSTTPAPRPPTPAPTIASQPLSLRPEACRPAAGGAVHTRGLDFACDIYIWAPLAGTCGVLLLSLVITLYCKRGRKKLLYIFKQPFMRPVQTTQEEDGCSCRFPEEEEGGCELRVKFSRSADAPAYKQGQNQLYNELNLGRREEYDVLDKRRGRDPEMGGKPRRKNPQEGLYNELQKDKMAEAYSEIGMKGERRRGKGHDGLYQGLSTATKDTYDALHMQALPPR
B4: VHH20 single VHH CAR (other)
chain: QVQLQESGGGLVQPGGSLRLSCAASGTTLDDYAVGWFRQAPGKEREGVACISASELSTYYADSVKGRFTISRDNAKNTMYLQMNSLKPEDTAVYYCAARVGRIVDVTSTQYQYWGQGTQVTVSSTTPAPRPPTPAPTIASQPLSLRPEACRPAAGGAVHTRGLDFACDIYIWAPLAGTCGVLLLSLVITLYCKRGRKKLLYIFKQPFMRPVQTTQEEDGCSCRFPEEEEGGCELRVKFSRSADAPAYKQGQNQLYNELNLGRREEYDVLDKRRGRDPEMGGKPRRKNPQEGLYNELQKDKMAEAYSEIGMKGERRRGKGHDGLYQGLSTATKDTYDALHMQALPPR
B5: VHH10 single VHH CAR (other)
chain: QVQLQESGGGLVQTGGSLRLSCEASERTFSSNAVGWFRQAPGKEREFVAAITWSVGTTYYADSVKGRFTISRDNAKNTVYLQMNSLKPEDTAVYYCAASGARHYSGSYLDFGSWGQGTQVTVSSTTPAPRPPTPAPTIASQPLSLRPEACRPAAGGAVHTRGLDFACDIYIWAPLAGTCGVLLLSLVITLYCKRGRKKLLYIFKQPFMRPVQTTQEEDGCSCRFPEEEEGGCELRVKFSRSADAPAYKQGQNQLYNELNLGRREEYDVLDKRRGRDPEMGGKPRRKNPQEGLYNELQKDKMAEAYSEIGMKGERRRGKGHDGLYQGLSTATKDTYDALHMQALPPR
B6: VHH08 single VHH CAR (other)
chain: QVQLQESGGGLVQPGGSLRLSCAASGSIFSIHAMAWYRQAPGKQRELVASITVGGRTNYVDSVLGRFTISRDNAKNTVYLQMNSLKPEDTAVYYCNSLLWAGLRDSWGPGTQVTVSSTTPAPRPPTPAPTIASQPLSLRPEACRPAAGGAVHTRGLDFACDIYIWAPLAGTCGVLLLSLVITLYCKRGRKKLLYIFKQPFMRPVQTTQEEDGCSCRFPEEEEGGCELRVKFSRSADAPAYKQGQNQLYNELNLGRREEYDVLDKRRGRDPEMGGKPRRKNPQEGLYNELQKDKMAEAYSEIGMKGERRRGKGHDGLYQGLSTATKDTYDALHMQALPPR
B7: VHH12 single VHH CAR (other)
chain: QVQLQESGGGLVQPGGSLRLSCAASGSTLDYYAIGWFRQAPGKEREGISCISNSGGMTNYADSVKGRFTISRDNAKNTVYLQMNSLKPEDTAVYYCAAGPAWSYCSGYVPAGLDKFGSWGQGTQVTVSSTTPAPRPPTPAPTIASQPLSLRPEACRPAAGGAVHTRGLDFACDIYIWAPLAGTCGVLLLSLVITLYCKRGRKKLLYIFKQPFMRPVQTTQEEDGCSCRFPEEEEGGCELRVKFSRSADAPAYKQGQNQLYNELNLGRREEYDVLDKRRGRDPEMGGKPRRKNPQEGLYNELQKDKMAEAYSEIGMKGERRRGKGHDGLYQGLSTATKDTYDALHMQALPPR
B8: VHH07 single VHH CAR (other)
chain: QVQLQESGGGLVQAGGSLRLSCAASGRTFSSYVMKWFRQAPGKGREFVAGISWSGSLTSYSDSVKGRFTISRDNAKNTVYLQMNSLKPEDTAVYYCAAGEAATMSDTDYGMDYWGKGTQVTVSSTTPAPRPPTPAPTIASQPLSLRPEACRPAAGGAVHTRGLDFACDIYIWAPLAGTCGVLLLSLVITLYCKRGRKKLLYIFKQPFMRPVQTTQEEDGCSCRFPEEEEGGCELRVKFSRSADAPAYKQGQNQLYNELNLGRREEYDVLDKRRGRDPEMGGKPRRKNPQEGLYNELQKDKMAEAYSEIGMKGERRRGKGHDGLYQGLSTATKDTYDALHMQALPPR
B9: dVHH-D (other)
chain (part 1 of 2): QVQLQESGGGLVQTGGSLRLSCEASERTFSSNAVGWFRQAPGKEREFVAAITWSVGTTYYADSVKGRFTISRDNAKNTVYLQMNSLKPEDTAVYYCAASGARHYSGSYLDFGSWGQGTQVTVSS
chain (part 2 of 2): QVQLQESGGGLVQPGGSLRLSCAASGSTLDYYAIGWFRQAPGKEREGISCISNSGGMTNYADSVKGRFTISRDNAKNTVYLQMNSLKPEDTAVYYCAAGPAWSYCSGYVPAGLDKFGSWGQGTQVTVSS
notes: also called VHH-10+VHH-12; double VHH antibody dVHH-D; not shown: Linker
B10: VHH12 (VHH)
VHH: QVQLQESGGGLVQPGGSLRLSCAASGSTLDYYAIGWFRQAPGKEREGISCISNSGGMTNYADSVKGRFTISRDNAKNTVYLQMNSLKPEDTAVYYCAAGPAWSYCSGYVPAGLDKFGSWGQGTQVTVSS
notes: Variable region only; also called anti-CD7 nanobody VHH12
B11: dVHH-E (other)
chain (part 1 of 2): QVQLQESGGGLVQTGGSLRLSCEASERTFSSNAVGWFRQAPGKEREFVAAITWSVGTTYYADSVKGRFTISRDNAKNTVYLQMNSLKPEDTAVYYCAASGARHYSGSYLDFGSWGQGTQVTVSS
chain (part 2 of 2): QVQLQESGGGLVQTGGSLRLSCEASERTFSSNAVGWFRQAPGKEREFVAAITWSVGTTYYADSVKGRFTISRDNAKNTVYLQMNSLKPEDTAVYYCAASGARHYSGSYLDFGSWGQGTQVTVSS
notes: also called VHH-10+VHH-10; double VHH antibody dVHH-E; not shown: Linker
B12: VHH10 (VHH)
VHH: QVQLQESGGGLVQTGGSLRLSCEASERTFSSNAVGWFRQAPGKEREFVAAITWSVGTTYYADSVKGRFTISRDNAKNTVYLQMNSLKPEDTAVYYCAASGARHYSGSYLDFGSWGQGTQVTVSS
notes: Variable region only; also called anti-CD7 nanobody VHH10

The first assay has as its target T1, CD7 on cells (K562-CD7 positive cells; …). Put plainly: cell-based or functional assay.
In the case of B1, the “killing ratio, CAR-T cells on KG-1a-GFP-Luc, E:T=3:1, 4 h, luciferase” value (from here on “killing ratio, CAR-T cells”) was determined as 60.4%. Still for that read-out and setting: to B2 belongs 61.7%; to B3, 62.2%; to B4, 9.38%. Still for that read-out and setting: with B5 the figure was 91.4%. Regarding B6, the “killing ratio, CAR-T cells” value is 68.5%.

Consider B7, for which the “killing ratio, CAR-T cells” value turned out to be 78.2%. With B8, the “killing ratio, CAR-T cells” value was 61.6%.

For another assay, the target named is T2, CD7-His protein. Put plainly: SPR, CD7-His immobilised on CM5 chip by amino coupling, antibody as analyte. How it is done:
In this example, the affinities of the antibodies were measured using the SPR method (surface plasmon resonance method) by immobilizing the CD7-His protein prepared in Example 1 on the CM5 chip through amino coupling method, using the antibodies (dVHH-D, dVHH-E, VHH10, and VHH12) as analytes for the experiments to detect the affinity of each antibody to the CD7 antigen.
(In general: In SPR one partner is held on a chip, and binding of the other changes the refractive index at the surface.)
By Kd is commonly meant the free concentration of one partner at which half of the binding sites on the other are occupied at equilibrium, for simple one-to-one binding. Higher therefore signals weaker binding. One may read the koff as a measure of how fast the partners let go of each other. A high value points to a short-lived complex. The term kon denotes the second-order rate constant of association. Lower therefore signals slow association. On to B9, for which the affinity, expressed as Kd, was 3.35 nM; the koff stood at 0.000754 s⁻¹; the kon was found to be 225000 M⁻¹ s⁻¹. In the same order, the values of B10 are 1.34 nM, 9.95e-05 s⁻¹ and 74200 M⁻¹ s⁻¹. The corresponding values for B11 are 4.51 nM, 0.000557 s⁻¹ and 123000 M⁻¹ s⁻¹. The corresponding values for B12 are 99.9 nM, 0.0164 s⁻¹ and 164000 M⁻¹ s⁻¹.
